Data from the supplement of paper PMC10065799, “High-throughput profiling of sequence recognition by tyrosine kinases and SH2 domains using bacterial peptide display” (eLife, 2023).

Assays:
[1] = biological target: SHP2-C SH2; assay: SH2 binding enrichment of the phosphorylated peptide, bacterial display (enrichment ratio); higher = better substrate or ligand; peptides without Tyr show the background
[2] = biological target: Grb2 SH2 (UniProt P62993); assay: as above
[3] = biological target: c-Src SH2; assay: as above
[4] = system: c-Src; assay: phosphorylation enrichment, bacterial display (enrichment ratio); higher = better substrate or ligand; peptides without Tyr show the background
[5] = biological target: MERTK (UniProt Q12866); assay: as above
[6] = biological target: EPHB2 (UniProt P29323); assay: as above
[7] = biological target: FGFR3 (UniProt P22607); assay: as above
[8] = system: Fer (mouse); assay: as above
[9] = biological target: Fes (UniProt P07332); assay: as above
[10] = system: AncSZ; assay: as above
[11] = system: c-Abl (mouse); assay: as above
[12] = biological target: EPHB1 (UniProt P54762); assay: as above
[13] = biological target: Fyn (UniProt P06241); assay: as above
[14] = biological target: Hck (UniProt P08631); assay: as above
[15] = biological target: Jak2 (UniProt O60674); assay: as above
[16] = biological target: FGFR1 (UniProt P11362); assay: as above
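Throughout, for SH2 binding enrichment of the phosphorylated peptide, bacterial display: peptide library displayed on the E. coli surface as eCPX fusions, selected cells deep-sequenced, score is each peptide's frequency after selection divided by its frequency in the input.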
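Throughout, for phosphorylation enrichment, bacterial display: 11-residue human phosphosite peptides and single-mutation variants displayed on the E. coli surface, counted by deep sequencing, each peptide's frequency after selection divided by its frequency in the unselected input library; frequency after pTyr selection over input frequency; kinase dosed for 20-30% of maximal phosphorylation in three min.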

Sequence of Grb2 SH2 (P62993 whole entry, looked up): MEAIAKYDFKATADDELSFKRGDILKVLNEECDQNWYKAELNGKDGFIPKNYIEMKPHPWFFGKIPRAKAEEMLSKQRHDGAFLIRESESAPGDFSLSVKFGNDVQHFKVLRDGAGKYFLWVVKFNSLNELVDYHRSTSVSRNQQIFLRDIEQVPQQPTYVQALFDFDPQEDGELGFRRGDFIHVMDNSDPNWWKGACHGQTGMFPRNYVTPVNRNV
Sequence of MERTK (Q12866 whole entry, looked up): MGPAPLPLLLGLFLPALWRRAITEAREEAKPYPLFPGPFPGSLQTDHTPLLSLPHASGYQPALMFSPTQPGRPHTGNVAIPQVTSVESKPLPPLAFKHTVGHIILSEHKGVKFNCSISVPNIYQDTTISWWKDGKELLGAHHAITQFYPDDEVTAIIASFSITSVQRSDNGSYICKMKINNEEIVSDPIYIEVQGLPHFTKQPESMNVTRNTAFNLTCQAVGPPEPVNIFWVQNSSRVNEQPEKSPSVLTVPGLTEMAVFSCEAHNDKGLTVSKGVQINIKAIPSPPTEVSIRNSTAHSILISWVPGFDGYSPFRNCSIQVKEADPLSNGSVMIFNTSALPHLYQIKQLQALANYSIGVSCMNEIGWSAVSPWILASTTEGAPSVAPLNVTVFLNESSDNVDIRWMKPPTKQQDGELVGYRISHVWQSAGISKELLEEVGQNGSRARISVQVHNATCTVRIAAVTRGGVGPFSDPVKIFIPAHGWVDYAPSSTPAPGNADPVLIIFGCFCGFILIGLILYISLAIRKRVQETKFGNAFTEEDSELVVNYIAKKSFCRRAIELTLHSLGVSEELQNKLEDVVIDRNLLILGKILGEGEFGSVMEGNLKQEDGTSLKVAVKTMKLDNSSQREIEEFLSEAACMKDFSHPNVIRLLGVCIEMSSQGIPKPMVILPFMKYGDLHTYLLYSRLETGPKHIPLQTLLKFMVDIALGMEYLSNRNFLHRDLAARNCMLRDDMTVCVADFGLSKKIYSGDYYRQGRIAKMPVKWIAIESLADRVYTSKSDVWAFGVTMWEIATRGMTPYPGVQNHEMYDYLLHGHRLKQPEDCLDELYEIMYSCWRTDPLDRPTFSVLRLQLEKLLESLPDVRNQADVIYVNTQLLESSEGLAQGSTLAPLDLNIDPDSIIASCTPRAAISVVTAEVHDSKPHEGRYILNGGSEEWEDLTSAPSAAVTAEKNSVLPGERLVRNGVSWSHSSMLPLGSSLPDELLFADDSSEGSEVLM
Sequence of Hck (P08631 whole entry, looked up): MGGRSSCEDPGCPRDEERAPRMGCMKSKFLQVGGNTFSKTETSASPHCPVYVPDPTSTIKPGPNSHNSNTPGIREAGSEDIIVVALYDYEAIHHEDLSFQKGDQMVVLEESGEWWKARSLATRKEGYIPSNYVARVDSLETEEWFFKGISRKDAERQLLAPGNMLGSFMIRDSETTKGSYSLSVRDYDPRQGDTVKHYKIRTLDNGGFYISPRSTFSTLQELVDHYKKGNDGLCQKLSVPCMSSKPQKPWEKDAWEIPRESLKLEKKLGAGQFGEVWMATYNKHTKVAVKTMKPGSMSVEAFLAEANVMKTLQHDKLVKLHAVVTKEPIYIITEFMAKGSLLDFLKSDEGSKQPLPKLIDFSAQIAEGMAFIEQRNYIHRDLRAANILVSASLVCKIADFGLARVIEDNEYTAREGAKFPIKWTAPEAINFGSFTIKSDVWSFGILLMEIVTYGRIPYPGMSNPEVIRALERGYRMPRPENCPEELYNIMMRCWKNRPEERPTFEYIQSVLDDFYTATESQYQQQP
Sequence of Fyn (P06241 whole entry, looked up): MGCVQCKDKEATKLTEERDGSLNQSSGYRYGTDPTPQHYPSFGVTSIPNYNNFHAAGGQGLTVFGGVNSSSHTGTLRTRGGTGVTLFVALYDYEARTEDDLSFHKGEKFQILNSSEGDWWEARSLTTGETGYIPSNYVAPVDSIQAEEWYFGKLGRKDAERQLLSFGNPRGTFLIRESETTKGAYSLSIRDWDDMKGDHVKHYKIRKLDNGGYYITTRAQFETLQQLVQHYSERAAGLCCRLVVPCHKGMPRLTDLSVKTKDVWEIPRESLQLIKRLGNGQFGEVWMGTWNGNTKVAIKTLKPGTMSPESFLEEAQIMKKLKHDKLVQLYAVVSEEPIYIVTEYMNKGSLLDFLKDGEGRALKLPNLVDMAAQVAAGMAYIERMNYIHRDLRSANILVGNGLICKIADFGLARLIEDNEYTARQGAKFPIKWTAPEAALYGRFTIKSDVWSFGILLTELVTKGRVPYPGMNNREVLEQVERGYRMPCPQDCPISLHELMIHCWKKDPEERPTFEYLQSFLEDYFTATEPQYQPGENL
Sequence of EPHB2 (P29323 whole entry, looked up): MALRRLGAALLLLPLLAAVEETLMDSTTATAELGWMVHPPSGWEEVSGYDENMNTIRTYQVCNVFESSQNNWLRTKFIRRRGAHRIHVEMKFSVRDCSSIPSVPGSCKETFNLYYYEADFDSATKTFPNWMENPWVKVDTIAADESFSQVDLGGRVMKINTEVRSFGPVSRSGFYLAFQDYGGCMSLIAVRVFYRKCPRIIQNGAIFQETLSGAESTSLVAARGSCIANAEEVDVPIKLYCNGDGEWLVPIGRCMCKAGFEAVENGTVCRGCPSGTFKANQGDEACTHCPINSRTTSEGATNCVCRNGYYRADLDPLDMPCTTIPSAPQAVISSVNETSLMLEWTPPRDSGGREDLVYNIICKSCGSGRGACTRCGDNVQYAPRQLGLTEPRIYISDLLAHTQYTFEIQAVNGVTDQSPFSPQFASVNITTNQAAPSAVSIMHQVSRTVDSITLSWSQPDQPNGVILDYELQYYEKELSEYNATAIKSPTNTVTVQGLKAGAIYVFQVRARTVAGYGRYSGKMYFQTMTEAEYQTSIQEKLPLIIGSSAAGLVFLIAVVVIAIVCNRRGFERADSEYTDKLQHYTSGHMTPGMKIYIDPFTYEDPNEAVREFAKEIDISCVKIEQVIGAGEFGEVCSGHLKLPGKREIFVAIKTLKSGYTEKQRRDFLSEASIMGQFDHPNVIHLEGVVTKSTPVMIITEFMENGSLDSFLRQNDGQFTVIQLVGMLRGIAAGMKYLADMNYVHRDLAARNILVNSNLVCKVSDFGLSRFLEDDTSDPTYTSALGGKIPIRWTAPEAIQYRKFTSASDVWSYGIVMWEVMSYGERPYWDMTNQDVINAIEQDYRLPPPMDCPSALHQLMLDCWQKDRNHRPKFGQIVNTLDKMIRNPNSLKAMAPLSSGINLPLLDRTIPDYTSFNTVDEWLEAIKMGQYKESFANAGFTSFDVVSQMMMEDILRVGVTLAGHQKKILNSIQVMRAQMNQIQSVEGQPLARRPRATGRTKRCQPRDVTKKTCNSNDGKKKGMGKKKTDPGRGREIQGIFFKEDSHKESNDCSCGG
Sequence of FGFR3 (P22607 whole entry, looked up): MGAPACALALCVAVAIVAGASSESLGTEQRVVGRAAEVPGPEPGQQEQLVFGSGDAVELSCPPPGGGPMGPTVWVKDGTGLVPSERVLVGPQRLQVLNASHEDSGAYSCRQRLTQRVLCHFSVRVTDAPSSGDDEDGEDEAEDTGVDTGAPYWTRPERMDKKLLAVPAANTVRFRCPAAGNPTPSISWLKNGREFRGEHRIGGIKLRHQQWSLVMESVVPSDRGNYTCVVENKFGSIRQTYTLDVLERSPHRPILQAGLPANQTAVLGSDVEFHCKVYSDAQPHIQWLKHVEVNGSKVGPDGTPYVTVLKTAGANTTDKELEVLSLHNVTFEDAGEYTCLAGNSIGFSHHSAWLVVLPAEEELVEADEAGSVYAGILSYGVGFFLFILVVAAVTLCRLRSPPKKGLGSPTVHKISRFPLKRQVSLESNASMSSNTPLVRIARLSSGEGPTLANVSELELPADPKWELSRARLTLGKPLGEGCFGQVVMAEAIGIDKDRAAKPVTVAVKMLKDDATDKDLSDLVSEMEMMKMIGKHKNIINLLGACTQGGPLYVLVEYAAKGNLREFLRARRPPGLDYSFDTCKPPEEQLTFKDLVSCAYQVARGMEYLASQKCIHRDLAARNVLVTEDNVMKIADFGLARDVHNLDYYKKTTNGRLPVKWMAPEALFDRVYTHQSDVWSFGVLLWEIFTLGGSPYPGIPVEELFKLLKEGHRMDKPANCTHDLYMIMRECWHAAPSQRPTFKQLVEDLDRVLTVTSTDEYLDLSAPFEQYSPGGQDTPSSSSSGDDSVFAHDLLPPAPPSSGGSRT
Sequence of Fes (P07332 whole entry, looked up): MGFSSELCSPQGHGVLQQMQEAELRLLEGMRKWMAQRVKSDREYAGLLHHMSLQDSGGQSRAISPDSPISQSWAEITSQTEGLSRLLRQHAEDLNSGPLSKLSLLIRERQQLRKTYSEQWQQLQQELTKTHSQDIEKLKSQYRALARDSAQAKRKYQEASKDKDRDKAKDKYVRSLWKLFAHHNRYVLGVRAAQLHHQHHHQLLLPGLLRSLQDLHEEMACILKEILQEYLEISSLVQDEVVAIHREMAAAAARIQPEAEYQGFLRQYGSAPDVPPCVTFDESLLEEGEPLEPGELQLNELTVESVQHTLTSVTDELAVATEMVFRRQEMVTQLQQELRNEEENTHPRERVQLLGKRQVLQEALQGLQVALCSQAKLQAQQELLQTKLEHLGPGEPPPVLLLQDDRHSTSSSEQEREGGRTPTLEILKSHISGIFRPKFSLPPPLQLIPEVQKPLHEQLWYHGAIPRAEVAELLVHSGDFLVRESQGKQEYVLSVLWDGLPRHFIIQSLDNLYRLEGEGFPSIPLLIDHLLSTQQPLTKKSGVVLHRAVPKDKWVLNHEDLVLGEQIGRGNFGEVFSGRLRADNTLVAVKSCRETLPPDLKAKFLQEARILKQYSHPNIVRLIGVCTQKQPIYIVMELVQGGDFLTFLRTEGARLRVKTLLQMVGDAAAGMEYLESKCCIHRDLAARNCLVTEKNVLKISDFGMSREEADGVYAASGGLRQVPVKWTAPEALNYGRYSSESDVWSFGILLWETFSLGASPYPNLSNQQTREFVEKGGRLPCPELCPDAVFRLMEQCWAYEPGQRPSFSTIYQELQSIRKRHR

Sequence | SH2 binding enrichment [1] | SH2 binding enrichment [2] | SH2 binding enrichment [3] | phosphorylation enrichment [4] | phosphorylation enrichment [5] | phosphorylation enrichment [6] | phosphorylation enrichment [7] | phosphorylation enrichment [8] | phosphorylation enrichment [9] | phosphorylation enrichment [10] | phosphorylation enrichment [11] | phosphorylation enrichment [12] | phosphorylation enrichment [13] | phosphorylation enrichment [14] | phosphorylation enrichment [15] | phosphorylation enrichment [16]
CTTIHDNYMCN [TP53_Y234_Y234D] | 0.837 | 1.21 | 0.922 | 0.44 | 0.507 | 0.556 | 0.539 | 0.54 | 1 | 0.817 | 0.551 | 0.521 | 0.435 | 0.546 | 0.799 | 0.541
LSVMSYDLGMF [GBA3_Y174] | 0.887 | 0.624 | 0.603 | 0.75 | 0.62 | 0.707 | 1.13 | 0.602 | 1.59 | 1.31 | 1.07 | 0.876 | 0.759 | 0.947 | 1.44 | 0.789
EERKTYVNTML [TEK_Y1102_T1106M] | 0.606 | 12.9 | 0.661 | 0.362 | 0.354 | 0.442 | 0.506 | 0.42 | 0.803 | 0.71 | 0.55 | 0.385 | 0.44 | 0.378 | 0.637 | 0.428
GGTTLYPGIAD [ACTC1_Y308_M307L] | 0.648 | 0.762 | 0.453 | 0.363 | 0.381 | 0.531 | 0.548 | 0.431 | 0.765 | 0.587 | 0.484 | 0.446 | 0.458 | 0.442 | 0.553 | 0.537
KPVDTYYDSTR [DYNC2H1_Y2230_M2227V] | 0.64 | 0.848 | 0.923 | 0.56 | 0.397 | 0.496 | 0.668 | 0.427 | 0.809 | 0.808 | 0.633 | 0.648 | 0.508 | 0.808 | 0.756 | 0.826
SEASFYKSLNL [NGEF_Y289_YF] | 0.535 | 0.642 | 0.401 | 0.505 | 0.471 | 0.522 | 0.692 | 0.57 | 1.27 | 0.98 | 0.852 | 0.589 | 0.403 | 0.488 | 1.1 | 0.395
GSQERYFELVE [TSC2_Y407] | 0.499 | 0.689 | 2.07 | 0.509 | 0.489 | 0.571 | 0.826 | 0.541 | 1.27 | 1.13 | 0.813 | 0.577 | 0.462 | 0.466 | 1.17 | 0.947
FAKTQYPDVYA [CRX_Y63] | 1 | 0.963 | 0.418 | 0.486 | 0.346 | 0.526 | 0.478 | 0.4 | 0.692 | 0.628 | 0.652 | 0.474 | 0.469 | 0.653 | 0.52 | 0.533
DSNPIYSQIWS [FCRL3_Y662] | 0.89 | 1.1 | 0.851 | 8.52 | 11.8 | 21.2 | 5.05 | 19.4 | 14.4 | 1.88 | 14.1 | 20.2 | 12.1 | 12 | 1.18 | 6.65
ERLWVYGMSSS [F8_Y1728_D1727V] | 0.688 | 0.872 | 0.639 | 0.556 | 0.395 | 0.612 | 0.729 | 0.539 | 1.61 | 1.17 | 0.691 | 0.669 | 0.565 | 0.574 | 1.18 | 0.529
YGSSSSGGAGG [RPA2_Y14_Y14S] | 0.612 | 0.711 | 0.395 | 0.337 | 0.355 | 0.461 | 0.347 | 0.437 | 0.535 | 0.604 | 0.317 | 0.304 | 0.389 | 0.359 | 0.392 | 0.403
QNTGFYFDLFG [PTPN11_Y62_D61Y_YF] | 0.657 | 1.19 | 0.663 | 0.681 | 2.75 | 1.25 | 2.42 | 1.12 | 2.16 | 1.89 | 1.36 | 1.6 | 0.668 | 0.742 | 2.66 | 3.04
KYVKMCDNHQL [MYO9A_Y203_Y203C] | 0.921 | 1.03 | 0.75 | 0.429 | 0.447 | 0.632 | 0.547 | 0.379 | 0.546 | 0.635 | 0.512 | 0.442 | 0.407 | 0.432 | 0.491 | 0.532
LFLACYFIGGG [UBD_Y161_C162F] | 0.855 | 0.861 | 0.793 | 0.647 | 0.45 | 0.612 | 1.05 | 0.533 | 1.77 | 1.16 | 1.03 | 0.773 | 0.502 | 0.55 | 1.35 | 0.453
VERRVYAEDPY [PCCA_Y401_C398R] | 0.506 | 0.89 | 0.55 | 0.681 | 0.46 | 0.507 | 0.664 | 0.424 | 0.962 | 0.826 | 0.566 | 0.459 | 0.764 | 0.566 | 0.663 | 0.631
FTNRSYDLDYD [MYC_Y12_N11S] | 0.418 | 0.717 | 2.51 | 0.576 | 0.512 | 0.841 | 0.745 | 0.488 | 1.13 | 1.24 | 0.645 | 0.542 | 0.565 | 0.632 | 0.804 | 0.561
PDGREYIFVDP [PDGFRA_Y572_H570R_YF] | 0.618 | 0.789 | 0.543 | 0.431 | 0.49 | 0.532 | 1.2 | 0.615 | 1.08 | 2.12 | 0.488 | 0.62 | 0.649 | 0.647 | 1.02 | 1.86
